US20210277110A1 (Janssen / Centocor, published 2021)
Like-named read-outs stand apart in the source and are kept apart here.

T1: cyno TIM-3 on transfected cells (cyno, UniProt A0A2K5U3G7 22-294)
T1 construct: whole, on cells; also called Cyno cells
T1 sequence: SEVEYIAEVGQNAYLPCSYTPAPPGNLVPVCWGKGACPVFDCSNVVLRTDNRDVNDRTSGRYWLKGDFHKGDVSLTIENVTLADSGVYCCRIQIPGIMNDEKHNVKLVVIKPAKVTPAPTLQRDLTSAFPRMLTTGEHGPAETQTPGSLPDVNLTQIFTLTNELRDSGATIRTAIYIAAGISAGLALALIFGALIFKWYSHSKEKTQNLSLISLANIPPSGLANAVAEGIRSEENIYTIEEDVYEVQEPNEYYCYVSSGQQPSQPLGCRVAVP

T2: Extracellular domain of cyno PD1 (cPD1-ECD) (Macaca fascicularis (cynomolgus))
T2 construct: Expressed with a hexahistidine tag or as Fc fusion; also called cynoPD1-ECD; cynoPD-1-ECD
T2 chain: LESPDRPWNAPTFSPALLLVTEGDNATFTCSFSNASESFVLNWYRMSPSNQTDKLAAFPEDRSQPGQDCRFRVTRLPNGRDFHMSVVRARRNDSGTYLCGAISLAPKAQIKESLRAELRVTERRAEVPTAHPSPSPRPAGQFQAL


How the values were obtained:
[1] = target: T3, recombinant human TIM-3-Fc fusion protein (huTIM-3-Fc) (human, UniProt Q8TDQ0 22-200); experiment: competition ELISA on coated Fc-TIM-3, competitor galectin-9
T3 construct: range 22-200; Bought from R&D Systems (NS0-derived); Deglycosylated for HDX-MS; also called recombinant human Fc-TIM-3 chimera; TIM-3 IgG1 Fc Chimera; not shown: IgG1 Fc of the bought chimera

[2] = target: T1, cyno TIM-3 on transfected cells; experiment: binding to cells transfected with cyno TIM-3
[3] = target: T4, Full length human TIM-3 on transfected cells (human, UniProt Q8TDQ0 22-301); experiment: binding to cells transfected with human TIM-3
T4 construct: also called Human cells

[4] = target: T2, Extracellular domain of cyno PD1 …; experiment: SPR ProteOn, cynoPD1-ECD; RANGE high replicate
[5] = target: T5, Extracellular domain of human PD1 (huPD1-ECD) (human, UniProt Q15116 25-169, biotinylated in the ligand inhibition assay (sites not given)); experiment: SPR ProteOn, captured mAb, huPD1-ECD analyte; approximation (chi2 > 20%)
T5 construct: Expressed with a hexahistidine tag or as Fc fusion; also called biotinylated PD-1

[6] = target: T2, Extracellular domain of cyno PD1 …; experiment: SPR ProteOn, cynoPD1-ECD; RANGE high replicate; RANGE high replicate
Experimental: (§1) Affinity measurements using Surface Plasmon Resonance (SPR) were performed using a ProteOn XPR36 system. A biosensor surface was prepared by coupling a mixture of anti-IgG Fc modified alginate polymer layer surface of a GLC chip using the manufacturer instructions for amine-coupling chemistry. […] The collected data were processed and fitted to a Langmuir 1:1 binding model. The result for each mAb was reported in the format of kₒₙ (On-rate), koff (Off-rate) and KD (equilibrium dissociation constant).
(§2) STDEV were calculated for 3 or more replicates generated for human and cyno proteins. If less than 3 replicates were calculated, RANGE was indicated. RANGE is defined as the low and high values for the replicates tested. For samples in the Table 10 or Table 11 without value indicated in RANGE or STDEV, only one experiment was performed.

[7] = target: T6, Full length human PD1 (huPD1) on cells (human, UniProt Q15116 25-288); experiment: flow cytometry, PHA-stimulated Jurkat cells
T6 construct: on T cells of human donors in the MLR and CMV assays (functional); also called PD-1 on Jurkat cells

[8] = target: T5, Extracellular domain of human PD1 …; experiment: MSD ligand inhibition, competitor coated cynoPDL1-ECD
Experimental: The ligand inhibition assay design was MSD (Mescoscale Discovery) based. A MSD plate was directly coated with ligand (cynoPDL1-ECD, huPDL1-ECD or huPDL2-ECD) and incubated overnight at 4° C. The following day, the coating solution was removed and the plate was blocked. […] Depending on the panel of antibodies to be tested, the antibodies were tested as titrations or at a fixed concentration. […] The mAbs that were positive for inhibition of ligand binding at one concentration were also tested in dose responses for inhibition of various PD-1 ligands.
Select Fabs were cloned as IgG2sigma isotype and characterized for their Jurkat cell binding and cynomolgus PD-L1 ligand inhibition at concentrations 1 μg/ml and 10 μg/ml.

[9] = target: T2, Extracellular domain of cyno PD1 …; experiment: SPR ProteOn, captured mAb, cynoPD1-ECD analyte
Experimental: as §1, §2

[10] = target: T5, Extracellular domain of human PD1 …; experiment: SPR ProteOn, captured mAb, huPD1-ECD analyte
Experimental: as §1, §2

[11] = target: T2, Extracellular domain of cyno PD1 …; experiment: SPR ProteOn, cynoPD1-ECD; RANGE low replicate
Experimental: as §1, §2

[12] = target: T5, Extracellular domain of human PD1 …; experiment: MSD ligand inhibition, competitor coated huPDL2-ECD
Experimental: (§3) The ligand inhibition assay design was MSD (Mescoscale Discovery) based. A MSD plate was directly coated with ligand (cynoPDL1-ECD, huPDL1-ECD or huPDL2-ECD) and incubated overnight at 4° C. The following day, the coating solution was removed and the plate was blocked. […] Depending on the panel of antibodies to be tested, the antibodies were tested as titrations or at a fixed concentration.

[13] = target: T5, Extracellular domain of human PD1 …; experiment: MSD ligand inhibition, competitor coated huPDL1-ECD
Experimental: as §3

[14] = target: T5, Extracellular domain of human PD1 …; experiment: SPR ProteOn, captured mAb, huPD1-ECD analyte; remark: listed apart in the source
[15] = target: T2, Extracellular domain of cyno PD1 …; experiment: SPR ProteOn, cynoPD1-ECD; RANGE high replicate; RANGE high replicate
Experimental: as §1
(§4) STDEV were calculated for 3 or more replicates generated for human and cyno proteins. If less than 3 replicates were calculated, RANGE is indicated. RANGE is defined as the low and high values for the replicates tested. For samples without RANGE or STDEV, only one experiment was performed

[16] = target: T2, Extracellular domain of cyno PD1 …; experiment: SPR ProteOn, captured mAb, cynoPD1-ECD analyte
Experimental: as §1, §4

[17] = target: T5, Extracellular domain of human PD1 …; experiment: SPR ProteOn, huPD1-ECD; RANGE high replicate; RANGE high replicate
Experimental: as §1, §4

[18] = target: T5, Extracellular domain of human PD1 …; experiment: SPR ProteOn, captured mAb; antigen species not given
[19] = target: T5, Extracellular domain of human PD1 …; experiment: SPR ProteOn, huPD1-ECD; RANGE high replicate
Experimental: as §1, §4

[20] = target: T2, Extracellular domain of cyno PD1 …; experiment: SPR ProteOn, cynoPD1-ECD; RANGE high replicate
Experimental: as §1, §4

[21] = target: T6, Full length human PD1 (huPD1) on cells; experiment: flow cytometry, PHA-stimulated Jurkat cells; remark: listed apart in the source
Experimental: Jurkat cells were stimulated overnight with 20 ng/ml of PHA, harvested, washed, and checked for viability. The cells were then incubated at 6-10° C. for 45-60 minutes with various concentrations of test antibodies, washed and incubated at 6-10° C. for 45-60 minutes with FITC-labeled goat anti-human IgG. The cells were washed and fixed with BD Cytofix, refrigerated overnight and analyzed on a MACSQuant flow cytometer. The percentage of PD-1 positive cells at each antibody concentration was plotted vs log of the antibody concentration and EC₅₀ values were generated in Prism.

[22] = target: T5, Extracellular domain of human PD1 …; experiment: SPR ProteOn, huPD1-ECD; RANGE low replicate
Experimental: as §1, §4

[23] = target: T5, Extracellular domain of human PD1 …; experiment: MSD ligand inhibition, competitor coated cynoPDL1-ECD; remark: listed apart in the source
Experimental: as §3

[24] = target: T2, Extracellular domain of cyno PD1 …; experiment: SPR ProteOn, cynoPD1-ECD; RANGE low replicate
Experimental: as §1, §4

[25] = target: T6, Full length human PD1 (huPD1) on cells; experiment: cell-based or functional assay
[26] = target: T2, Extracellular domain of cyno PD1 …; experiment: SPR ProteOn, cynoPD1-ECD; RANGE low replicate; RANGE low replicate
Experimental: as §1, §4

T5 sequence (Q15116 25-169 limits assumed): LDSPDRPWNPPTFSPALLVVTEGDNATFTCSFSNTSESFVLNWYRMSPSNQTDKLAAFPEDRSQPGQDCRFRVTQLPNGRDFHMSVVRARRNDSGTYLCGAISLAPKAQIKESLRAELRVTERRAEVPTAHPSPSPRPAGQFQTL
T6 sequence (Q15116 25-288 limits assumed): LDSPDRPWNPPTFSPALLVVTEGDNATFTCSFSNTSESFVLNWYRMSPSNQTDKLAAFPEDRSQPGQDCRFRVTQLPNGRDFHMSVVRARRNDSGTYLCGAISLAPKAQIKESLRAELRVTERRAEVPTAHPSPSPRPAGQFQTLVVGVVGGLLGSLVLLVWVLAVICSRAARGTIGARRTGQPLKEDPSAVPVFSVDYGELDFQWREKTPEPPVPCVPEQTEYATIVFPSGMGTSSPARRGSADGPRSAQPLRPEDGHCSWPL

Binder	Galectin 9 Inhibition, % inhibition (maximal) [1]	EC50 [2]	EC50 [3]	EC50 [7]	percentage ligand not blocked at 1 µg/ml [8]	percentage ligand not blocked at 10 µg/ml [8]	Kd [9]	koff [9]	kon [9]	koff [10]	kon [10]	Kd [14]	koff [14]	kon [14]	koff [15]	Kd [16]	koff [16]	kon [16]	Kd [20]	Kd [24]	other results
TM3B189 (antibody, V domains shown, Mouse-derived variable domains; also called TM3H141/TM3L61) VH: EVQLQQSGPELLKPGASVKMSCKASGYTFTSYVMYWVKQKPGQGLEWIGYINPYNDGTKYNEKFKGKATLTSDKSSSTAYMELSRLTSEDSAVYYCTRDDYDVAPFAYWGQGTLVTVSA VL: DIVLTQSPASLAVSLGQRATISCRASESLDSYGNSYIHWYQQKPGQPPKLLIYLASNLESGVPARFSGSGSKTDFTLTIDPVEADDPATYYCQQNNEDPFTFGSGTKLEIK	76.4%	0.19 µg/mL	0.74 µg/mL	–	–	–	–	–	–	–	–	–	–	–	–	–	–	–	–	–	–
PD1B149 (antibody, human IgG2, kappa, V domains shown, IgG2sigma/kappa; VH 41, VL 50; also called PD1H24/PD1L128) VH: QVQLVQSGAEVKKPGSSVKVSCKASGGTFSSYAISWVRQAPGQGLEWMGGIIPIFGTANYAQKFQGRVTITADESTSTAYMELSSLRSEDTAVYYCARPGLAAAYDTGNLDYWGQGTLVTVSS VL: EIVLTQSPATLSLSPGERATLSCRASQSVRNYLAWYQQKPGQAPRLLIHDASNRATGIPARFSGSGSGTDFTLTISSLEPEDFAVYYCQQRNYWPLTFGQGTKVEIKR	–	–	–	0.08 µg/mL	7%	7%	11.2 nM	0.00357 s⁻¹	320000 M⁻¹ s⁻¹	0.0062 s⁻¹	532000 M⁻¹ s⁻¹	–	–	–	–	–	–	–	–	–	Kd [4]: 11.4 nM; Kd [5]: ~12 nM; koff [6]: 0.00365 s⁻¹; kon [6]: 336000 M⁻¹ s⁻¹; Kd [11]: 10.9 nM; koff [11]: 0.00348 s⁻¹; kon [11]: 304000 M⁻¹ s⁻¹
PD1B71 (antibody, V domains shown, Tested as IgG2sigma/kappa; also called PD1H108/PH9L3) VH: QVQLVQSGAEVKKPGSSVKVSCKASGGTFSSYAISWVRQAPGQGLEWMGGIIPIFGTANYAQKFQGRVTITADESTSTAYMELSSLRSEDTAVYYCARGTLDRTGHLDYWGQGTLVTVSS VL: EIVLTQSPATLSLSPGERATLSCRASQSVSSYLAWYQQKPGQAPRLLIYDASNRATGIPARFSGSGSGTDFTLTISSLEPEDFAVYYCQQRSNWPLTFGQGTKVEIK	–	–	–	0.13 µg/mL	6%	9%	66.8 nM	0.0203 s⁻¹	304000 M⁻¹ s⁻¹	0.0273 s⁻¹	548000 M⁻¹ s⁻¹	23.5 nM	0.0225 s⁻¹	955000 M⁻¹ s⁻¹	0.0207 s⁻¹	52 nM	0.0196 s⁻¹	377000 M⁻¹ s⁻¹	61.4 nM	44.4 nM	IC50 [12]: 0.035 µg/mL; IC50 [13]: 0.024 µg/mL; kon [15]: 417000 M⁻¹ s⁻¹; koff [17]: 0.023 s⁻¹; Kd [18]: 120 nM; koff [18]: 0.0277 s⁻¹; kon [18]: 231000 M⁻¹ s⁻¹; Kd [19]: 24.7 nM; kon [19]: 976000 M⁻¹ s⁻¹; EC50 [21]: 0.13 to 0.47 µg/mL; Kd [22]: 22.4 nM; koff [22]: 0.0219 s⁻¹; kon [22]: 933000 M⁻¹ s⁻¹; Kd [10]: 49.9 nM; IC50 [23]: 0.014 to 0.015 µg/mL; koff [24]: 0.0185 s⁻¹; kon [24]: 337000 M⁻¹ s⁻¹
PD1B195 (antibody, V domains shown, also called PD1H170/PD1L67) VH: QVQLVQSGAEVKKPGSSVKVSCKASGGTFSSYAISWVRQAPGQGLEWMGGIIPIFDTANYAQKFQGRVTITADESTSTAYMELSSLRSEDTAVYYCARPGLAAAYDTGSLDYWGQGTLVTVSS VL: EIVLTQSPATLSLSPGERATLSCRASQSVDSYLAWYQQKPGQAPRLLIYDASNRATGIPARFSGSGSGTDFTLTISSLEPEDFAVYYCQQREYWPLTFGQGTKVEIK	–	–	–	–	–	–	–	–	–	–	–	1.23 nM	0.00152 s⁻¹	1.23e+06 M⁻¹ s⁻¹	0.000419 s⁻¹	0.94 nM	0.000408 s⁻¹	432000 M⁻¹ s⁻¹	0.97 nM	0.91 nM	CMV EC50, nM (IFN-γ induction) [25]: 1.64 nM; koff [26]: 0.000396 s⁻¹; kon [20]: 434000 M⁻¹ s⁻¹; kon [24]: 430000 M⁻¹ s⁻¹

Now from value to binder, other results behind:

Galectin 9 Inhibition, % inhibition (maximal) [1]	EC50 [2]	EC50 [3]	EC50 [7]	percentage ligand not blocked at 1 µg/ml [8]	percentage ligand not blocked at 10 µg/ml [8]	Kd [9]	koff [9]	kon [9]	koff [10]	kon [10]	Kd [14]	koff [14]	kon [14]	koff [15]	Kd [16]	koff [16]	kon [16]	Kd [20]	Kd [24]	Binder	other results
69.8%	0.03 µg/mL	0.46 µg/mL	–	–	–	–	–	–	–	–	–	–	–	–	–	–	–	–	–	TM3B105 (antibody, human IgG2, kappa, V domains shown, IgG2sigma/kappa; VH 146, VL 156; also called TM3H24/TM3L33) VH: not shown VL: EIVLTQSPATLSLSPGERATLSCRASQSVNDYLAWYQQKPGQAPRLLIYDASNRATGIPARFSGSGSGTDFTLTISSLEPEDFAVYYCQQGGHAPITFGQGTKVEIKR	–
60.7%	0.08 µg/mL	0.35 µg/mL	–	–	–	–	–	–	–	–	–	–	–	–	–	–	–	–	–	TM3B190 (antibody, V domains shown, Mouse-derived variable domains; also called TM3H96/TM3L62) VH: DVQLQESGPGLVKPSQSLSLTCTVTGYSITSDYAWNWIRQFPGNKLEWMGYINYSGRTSYNPSLKSRISITRDTSKNQFFLQLNSVTTEDTATYYCTSGGNFDYWGQGTTLTVSS VL: DIVMTQSPSSMSASLGDRITITCQATQDIVKNLNWYQQKPGKPPSFLIHYVTELAEGVPSRFSGSGSGSDYSLTISNLESEDFADYYCLQFYEFPLTFGAGTKLELK	–
